Experimental data reported in article PMC7954794, “Protein context shapes the specificity of SH3 domain-mediated interactions in vivo” (Nature Communications, 2021).

Test system: Abp1 PPIs
Test: DHFR-PCA of Abp1 SH3-swapped baits (Fig. 2B-D, S2C, S2F);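 as to Protein-protein interaction distance between Abp1 SH3-swapped baits, to ABP1: Euclidean distance between DHFR-PCA score profiles of the baits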;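 as to Protein-protein interaction distance between Abp1 SH3-swapped baits, to BEM1-2: Euclidean distance between DHFR-PCA score profiles of the baits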;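 as to Protein-protein interaction distance between Abp1 SH3-swapped baits, to BOI1: Euclidean distance between DHFR-PCA score profiles of the baits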;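 as to Protein-protein interaction distance between Abp1 SH3-swapped baits, to BZZ1-1: Euclidean distance between DHFR-PCA score profiles of the baits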
Assay type: cell-based, Saccharomyces cerevisiae
Summary of the method: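 Interactions were scored by DHFR protein-fragment complementation. DHFR F[1,2]-tagged Abp1 strains, whose SH3 was swapped for yeast or human ortholog domains, were crossed on YPD at 30 °C for 48 h with a 1536-format array of 575 prey-DHFR F[3] strains and 40 negatives, giving four replicates per pair. PCA selection lasted 4 days after double diploid selection.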

[1] = number of PPIs, difference, Abp1 SH3-swapped with the listed SH3, Fig2D,S2F

B1: BOI1 (protein, UniProt P38041 1-980, looked up)
BEM1-interacting protein 1: MSLEGNTLGKGAKSFPLYIAVNQYSKRMEDELNMKPGDKIKVITDDGEYNDGWYYGRNLRTKEEGLYPAVFTKRIAIEKPENLHKSPTQESGNSGVKYGNLNDSASNIGKVSSHQQENRYTSLKSTMSDIDKALEELRSGSVEQEVSKSPTRVPEVSTPQLQDEQTLIQEKTRNEENTTHDSLFSSTADLNLSSESLKNISKSNISTKSLEPSSESVRQLDLKMAKSWSPEEVTDYFSLVGFDQSTCNKFKEHQVSGKILLELELEHLKELEINSFGIRFQIFKEIRNIKSAIDSSSNKLDADYSTFAFENQAAQLMPAATVNRDEIQQQISSKCNKLSSESSDRKSSSVTTELQRPSSVVVNPNFKLHDPAEQILDMTEVPNLFADKDIFESPGRAPKPPSYPSPVQPPQSPSFNNRYTNNNARFPPQTTYPPKNKNPTVYSNGLIPNSSTSSDNSTGKFKFPAMNGHDSNSRKTTLTSATIPSINTVNTDESLPAISNISSNATSHHPNRNSVVYNNHKRTESGSSFVDLFNRISMLSPVKSSFDEEETKQPSKASRAVFDSARRKSSYGHSRDASLSEMKKHRRNSSILSFFSSKSQSNPTSPTKQTFTIDPAKMTSHSRSQSNSYSHARSQSYSHSRKHSLVTSPLKTSLSPINSKSNIALAHSETPTSSNNKEAVSQPSEGKHKHKHKHKSKHKHKNSSSKDGSSEEKSKKKLFSSTKESFVGSKEFKRSPSELTQKSTKSILPRSNAKKQQTSAFTEGIRSITAKESMQTADCSGWMSKKGTGAMGTWKQRFFTLHGTRLSYFTNTNDEKERGLIDITAHRVLPASDDDRLISLYAASLGKGKYCFKLVPPQPGSKKGLTFTEPRVHYFAVENKSEMKAWLSAIIKATIDIDTSVPVISSYATPTIPLSKAQTLLEEARLQTQLRDAEEEEGRDQFGWDDTQNKRNSNYPIEQDQFETSDYLESSAFEYPGGRL
Protein-protein interaction distance between Abp1 SH3-swapped baits, to ABP1 (Abp1 bait with swapped SH3, distance to bait with ABP1 SH3, sheet Fig2C): 11.59 | Protein-protein interaction distance between Abp1 SH3-swapped baits, to BBC1 (distance to Abp1 bait with BBC1 SH3, sheet Fig2C): 9.448 | Protein-protein interaction distance between Abp1 SH3-swapped baits, to BEM1-1 (distance to Abp1 bait with BEM1-1 SH3, sheet Fig2C): 8.19 | Protein-protein interaction distance between Abp1 SH3-swapped baits, to BEM1-2 (distance to Abp1 bait with BEM1-2 SH3, sheet Fig2C): 28.06 | Protein-protein interaction distance between Abp1 SH3-swapped baits, to BOI1 (distance to Abp1 bait with BOI1 SH3, sheet Fig2C): 0.00 | Protein-protein interaction distance between Abp1 SH3-swapped baits, to BOI2 (distance to Abp1 bait with BOI2 SH3, sheet Fig2C): 6.71 | Protein-protein interaction distance between Abp1 SH3-swapped baits, to BUD14 (distance to Abp1 bait with BUD14 SH3, sheet Fig2C): 11.14 | Protein-protein interaction distance between Abp1 SH3-swapped baits, to BZZ1-1 (distance to Abp1 bait with BZZ1-1 SH3, sheet Fig2C): 8.863 | Protein-protein interaction distance between Abp1 SH3-swapped baits, to BZZ1-2 (distance to Abp1 bait with BZZ1-2 SH3, sheet Fig2C): 6.782 | Protein-protein interaction distance between Abp1 SH3-swapped baits, to CDC25 (distance to Abp1 bait with CDC25 SH3, sheet Fig2C): 21 | Protein-protein interaction distance between Abp1 SH3-swapped baits, to CTTN (distance to Abp1 bait with CTTN SH3, sheet Fig2C): 8.701 | Protein-protein interaction distance between Abp1 SH3-swapped baits, to CYK3 (distance to Abp1 bait with CYK3 SH3, sheet Fig2C): 21.68 | Protein-protein interaction distance between Abp1 SH3-swapped baits, to DBNL (distance to Abp1 bait with DBNL SH3, sheet Fig2C): 8.616 | Protein-protein interaction distance between Abp1 SH3-swapped baits, to FUS1 (distance to Abp1 bait with FUS1 SH3, sheet Fig2C): 12.53 | Protein-protein interaction distance between Abp1 SH3-swapped baits, to HCLS1 (distance to Abp1 bait with HCLS1 SH3, sheet Fig2C): 12.36 | Protein-protein interaction distance between Abp1 SH3-swapped baits, to HOF1 (distance to Abp1 bait with HOF1 SH3, sheet Fig2C): 26.74 | Protein-protein interaction distance between Abp1 SH3-swapped baits, to HSE1 (distance to Abp1 bait with HSE1 SH3, sheet Fig2C): 7.847 | Protein-protein interaction distance between Abp1 SH3-swapped baits, to LSB1 (distance to Abp1 bait with LSB1 SH3, sheet Fig2C): 16.11 | Protein-protein interaction distance between Abp1 SH3-swapped baits, to LSB3 (distance to Abp1 bait with LSB3 SH3, sheet Fig2C): 16.12 | Protein-protein interaction distance between Abp1 SH3-swapped baits, to MYO3 (distance to Abp1 bait with MYO3 SH3, sheet Fig2C): 14.63 | Protein-protein interaction distance between Abp1 SH3-swapped baits, to MYO5 (distance to Abp1 bait with MYO5 SH3, sheet Fig2C): 14.33 | Protein-protein interaction distance between Abp1 SH3-swapped baits, to NBP2 (distance to Abp1 bait with NBP2 SH3, sheet Fig2C): 10.48 | Protein-protein interaction distance between Abp1 SH3-swapped baits, to PEX13 (distance to Abp1 bait with PEX13 SH3, sheet Fig2C): 13.22 | Protein-protein interaction distance between Abp1 SH3-swapped baits, to PIN3 (distance to Abp1 bait with PIN3 SH3, sheet Fig2C): 13.58 | Protein-protein interaction distance between Abp1 SH3-swapped baits, to RVS167 (distance to Abp1 bait with RVS167 SH3, sheet Fig2C): 11.58 | Protein-protein interaction distance between Abp1 SH3-swapped baits, to SDC25 (distance to Abp1 bait with SDC25 SH3, sheet Fig2C): 29.16 | Protein-protein interaction distance between Abp1 SH3-swapped baits, to SHO1 (distance to Abp1 bait with SHO1 SH3, sheet Fig2C): 8.152 | Protein-protein interaction distance between Abp1 SH3-swapped baits, to SLA1-1 (distance to Abp1 bait with SLA1-1 SH3, sheet Fig2C): 23.94 | Protein-protein interaction distance between Abp1 SH3-swapped baits, to SLA1-2 (distance to Abp1 bait with SLA1-2 SH3, sheet Fig2C): 13.51 | Protein-protein interaction distance between Abp1 SH3-swapped baits, to SLA1-3 (distance to Abp1 bait with SLA1-3 SH3, sheet Fig2C): 15.75 | Protein-protein interaction distance between Abp1 SH3-swapped baits, to YSC84 (distance to Abp1 bait with YSC84 SH3, sheet Fig2C): 16.61 | PPIs gained by Abp1 - SH3-dependent PPIs gained by Abp1 [1]: 1 | SH3-dependent PPIs - SH3-dependent PPIs gained by Abp1 [1]: 2 | SH3-dependent PPIs gained by Abp1 (number of PPIs, Abp1 SH3-swapped with the listed SH3, DHFR-PCA, Fig2D,S2F): 1

B2: WT (protein, UniProt P15891 2-592, looked up)
Actin-binding protein: ALEPIDYTTHSREIDAEYLKIVRGSDPDTTWLIISPNAKKEYEPESTGSSFHDFLQLFDETKVQYGLARVSPPGSDVEKIIIIGWCPDSAPLKTRASFAANFAAVANNLFKGYHVQVTARDEDDLDENELLMKISNAAGARYSIQTSSKQQGKASTPPVKKSFTPSKSPAPVSKKEPVKTPSPAPAAKISSRVNDNNDDDDWNEPELKERDFDQAPLKPNQSSYKPIGKIDLQKVIAEEKAKEDPRLVQKPTAAGSKIDPSSDIANLKNESKLKRDSEFNSFLGTTKPPSMTESSLKNDDDKVIKGFRNEKSPAQLWAERKAKQNSGNAETKAEAPKPEVPEDEPEGEPDVKDLKSKFEGLAASEKEEEEMENKFAPPPKKSEPTIISPKPFSKPQEPVKAEEAEQPKTDYKKIGNPLPGMHIEADNEEEPEENDDDWDDDEDEAAQPPLPSRNVASGAPVQKEEPEQEEIAPSLPSRNSIPAPKQEEAPEQAPEEEIEEEAEEAAPQLPSRSSAAPPPPPRRATPEKKPKENPWATAEYDYDAAEDNELTFVENDKIINIEFVDDDWWLGELEKDGSKGLFPSNYVSLGN
Interactions in Abp1 (number of interactions of Abp1 carrying the named SH3, sheet FigS2A-B): 80
